Here are results for seven molecules from publication PMC8857485, “Prostate secretory protein 94 inhibits sterol binding and export by the mammalian CAP protein CRISP2 in a calcium-sensitive manner” (The Journal of Biological Chemistry, 2022).

The target of one assay is cholesterol sulfate. Put plainly: microscale thermophoresis. The note with it: measurements in triplicates. Background: MST reads how a fluorescent partner responds to local heating, with and without ligand.
In assay [1] the target is T1, prostate secretory protein of 94 amino acids (PSP94), C-terminal polyhistidine tag (human, UniProt P08118 21-114).
T1 chain: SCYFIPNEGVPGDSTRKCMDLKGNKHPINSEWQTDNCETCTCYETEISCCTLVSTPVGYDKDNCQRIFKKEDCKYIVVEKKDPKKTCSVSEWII
Put plainly: MST.

Assay [2] addresses T1, prostate secretory protein of 94 amino …. Put plainly: MST.
Assay [3] deals with sterol export by CAP proteins (Pry1, CRISP2, CRISP3). Put plainly: In vivo sterol export assay ([14C]cholesteryl acetate export) in yeast. Format: cell-based, Saccharomyces cerevisiae. To be noted: co-expression with CRISP2 in quadruple mutant yeast. An excerpt:
To test whether expression of PSP94 would affect the function of Pry1 in sterol export, we expressed PSP94 fused to the N-terminal signal sequence from Pry1 (amino acids 1–19) from a constitutive alcohol dehydrogenase promoter (ADH1) to direct the protein into the yeast secretory pathway. This PSP94-containing plasmid was then transformed into heme-deficient yeast cells lacking the sterol deacetylase Say1 (hem1Δ say1Δ). This strain is able to take up radiolabeled [^14C]cholesterol, acetylate it in an alcohol acetyltransferase 2 (Atf2)-dependent pathway, and secrete the resulting radiolabeled cholesteryl acetate back into the culture medium ([29]). […] To test whether expression of PSP94 would affect the synthesis or secretion of Pry1, CRISP2, or CRISP3, we coexpressed FLAG-tagged PSP94 with hemagglutinin (HA)-tagged Pry1, CRISP2, or CRISP3, separated yeast cells from the culture medium, precipitated proteins from both fractions with trichloroacetic acid (TCA), and detected the tagged proteins by Western blotting.
The sterol export assay was performed as described ([29]). […] Extracted radiolabeled lipids were quantified by scintillation counting, and volumes corresponding to 10,000 cpm (counts per minute) were dried. […] TLC plates were then exposed to phosphorimager screens, and radiolabeled lipids were visualized and quantified using a phosphorimager. […]

Where [4] appears, read: cholesterol sulfate titrated (x axis Cholesterol sulfate [µM]).

Changes are numbered by the printed parent chain. In names and notes the source's numbering stands. Where two headings read alike, the source gives them in different places.

As usually defined, the Kd is the constant that tells how readily two partners part at equilibrium. Molecule “CRISP2 (cysteine-rich secretory protein 2), C-terminal polyhistidine tag (from UniProt P16562) N97P; L98G” displayed a Kd with cholesterol sulfate (setting [4]) of 3.8 µM.
In turn, “CRISP2 (cysteine-rich secretory protein 2), C-terminal polyhistidine tag (from UniProt P16562) N97P; Y99P” displayed a Kd with cholesterol sulfate (setting [4]) of 2.7 µM.
For the molecule “CRISP2 (cysteine-rich secretory protein 2), C-terminal polyhistidine tag (from UniProt P16562) L98G; Y99P”, the Kd came to 0.5 µM with cholesterol sulfate (in the presence of PSP94) and 2.2 µM with cholesterol sulfate (setting [4]).

B1: CRISP2 N97P L98G (protein)
chain: KDPAFTALLTTQLQVQREIVNKHNELRKAVSPPASNMLKMEWSREVTTNAQRWANKCTLQHSDPEDRKTSTRCGEPGYMSSDPTSWSSAIQSWYDEILDFVYGVGPKSPNAVVGHYTQLVWYSTYQVGCGIAYCPNQDSLKYYYVCQYCPAGNNMNRKNTPYQQGTPCAGCPDDCDKGLCTNSCQYQDLLSNCDSLKNTAGCEHELLKEKCKATCLCENKIY
modifications: limits not printed: mature chain by convention (pelB secretion in E. coli, C-terminal His tag left out); residue numbers match the precursor
Turning to B1, the affinity in assay [1], expressed as Kd, was 4 nM.

B2: CAP domain of Pry1 (Pry1^CAP), C-terminal polyhistidine tag (domain or fragment)
chain: SASSSDSDLSDFASSVLAEHNKKRALHKDTPALSWSDTLASYAQDYADNYDCSGTLTHSGGPYGENLALGYDGPAAVDAWYNEISNYDFSNPGFSSNTGHFTQVVWKSTTQVGCGIKTCGGAWGDYVICSYDPAGNYEGEYADNVEPLA
modifications: RED-tris-NTA fluorescent label on the His tag
In assay [2], B2 gave a Kd of 63 nM.

B3: CRISP3 (cysteine-rich secretory protein 3), C-terminal polyhistidine tag (natural protein)
chain: NEDKDPAFTALLTTQTQVQREIVNKHNELRRAVSPPARNMLKMEWNKEAAANAQKWANQCNYRHSNPKDRMTSLKCGENLYMSSASSSWSQAIQSWFDEYNDFDFGVGPKTPNAVVGHYTQVVWYSSYLVGCGNAYCPNQKVLKYYYVCQYCPAGNWANRLYVPYEQGAPCASCPDNCDDGLCTNGCKYEDLYSNCKSLKLTLTCKHQLVRDSCKASCNCSNSIY
modifications: RED-tris-NTA fluorescent label on the His tag
B3 came in with a Kd in assay [2] of 46 nM.

B4: PSP94^F24G: point mutant version of PSP94 (F24 corresponds to F4 in the processed protein), impaired binding to CRISP3 (protein)
chain: T1 chain with F4G
modifications: left off: polyhistidine, C-terminal, state not stated
On to B4, for which the “effect on sterol binding and export by CRISP2 in vivo” value in assay [3] is “did not inhibit sterol binding and export”.
